Consider one substance from doi:10.1101/2022.05.07.491029.

Assay [1] concerns the target HSV-1 gD-Sm (herpes simplex virus 1 (strain KOS)) (UniProt Q69091). In words: split reporter.
Assay [2] addresses HSV-1 gB-Sm (herpes simplex virus 1 (strain KOS)) (UniProt P06437). The experiment in a line: split reporter.

Chain of UniProt Q69091 (Q69091 26-394): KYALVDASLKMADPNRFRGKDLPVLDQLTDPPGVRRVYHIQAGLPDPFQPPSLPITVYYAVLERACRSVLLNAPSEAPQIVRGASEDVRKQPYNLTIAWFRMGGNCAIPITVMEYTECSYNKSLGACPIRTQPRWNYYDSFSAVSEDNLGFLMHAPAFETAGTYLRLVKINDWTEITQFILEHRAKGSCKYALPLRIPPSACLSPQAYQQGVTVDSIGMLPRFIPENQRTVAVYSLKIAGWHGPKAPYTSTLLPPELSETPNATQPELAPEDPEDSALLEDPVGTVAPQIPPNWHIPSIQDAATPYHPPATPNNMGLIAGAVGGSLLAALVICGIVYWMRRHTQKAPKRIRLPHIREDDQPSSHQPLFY

“HSV-1 gH-Lg expressed without gL (from UniProt P06477 19-838) (natural protein)”: the fold reduction of the NanoBiT interaction in the absence of gL against gH/gL stood at 6 fold in assay [1] and 2 fold in assay [2].
